# Where no end group is shown, it is not given here. [ ]: non-standard residue; d: D form. The star is where a group is joined. 5FAM = O=C1OC2(c3ccc(O)cc3Oc3cc(O)ccc32)c2ccc(C(=O)*)cc21; Dabcyl = CN(C)c1ccc(N=Nc2ccc(C(=O)*)cc2)cc1; Nle = CCCC[C@H](N)C(=O)O
# What was measured:
# BoNT/A complex [1] = target: T1, BoNT/A complex (Clostridium botulinum, UniProt P0DPI1)
# Trypsin [2] = target: T2, Trypsin (Sus scrofa, UniProt P00761); type: biochemical
# [3] = test system: BoNT/A holotoxin, complex or the non-toxic LCs; type: biochemical, Clostridium botulinum
# BoNT/B = BoNT/B (Clostridium botulinum, UniProt P10844)
# BoNT/A complex [4] = target: T1, BoNT/A complex; type: biochemical
# BoNT/A subtypes A1 to A5 = type: biochemical, Clostridium botulinum
# Proteinase K = Proteinase K (Parengyodontium album, UniProt P06873); type: biochemical
# Thermolysin = Thermolysin (Bacillus thermoproteolyticus, UniProt P00800)
# Trypsin [5] = target: T2, Trypsin; type: biochemical; remark: listed apart in the source
# BoNT/A light chain = BoNT/A light chain (Clostridium botulinum, UniProt P0DPI0)
# Chain of BoNT/A light chain (P0DPI0 2-448 limits assumed): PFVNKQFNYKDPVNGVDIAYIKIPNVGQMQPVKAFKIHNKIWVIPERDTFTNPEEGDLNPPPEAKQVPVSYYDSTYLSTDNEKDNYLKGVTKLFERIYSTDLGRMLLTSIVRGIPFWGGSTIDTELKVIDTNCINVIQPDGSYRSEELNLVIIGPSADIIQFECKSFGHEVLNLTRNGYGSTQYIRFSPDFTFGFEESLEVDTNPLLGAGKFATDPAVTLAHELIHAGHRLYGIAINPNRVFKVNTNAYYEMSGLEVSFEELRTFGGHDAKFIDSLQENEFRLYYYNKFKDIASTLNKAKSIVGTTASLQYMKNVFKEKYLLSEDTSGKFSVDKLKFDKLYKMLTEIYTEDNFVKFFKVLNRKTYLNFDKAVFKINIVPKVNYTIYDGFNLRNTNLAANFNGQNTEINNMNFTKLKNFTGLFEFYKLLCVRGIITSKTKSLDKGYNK
compound,measurement,setting,value
"[5-Fam]TRIDEANQRATK[DABCYL] (5FAM-TRIDEANQRATK; not fully specified (residue 12); also: DABCYL label at C-terminal K, side chain or terminus not clear) [#110]",cleavage by BoNT/A complex,BoNT/A complex [1],not by BoNT/A complex
same,cleavage by trypsin,Trypsin [2],cleaved by trypsin
"[4-Mu]TRIDEANQRATK[DABCYL] ({4‑Mu}-TRIDEANQRATK; not fully specified (residue 12); also: DABCYL label at C-terminal K, side chain or terminus not clear) [#111]",cleavage by BoNT/A complex,BoNT/A complex [1],not by BoNT/A complex
same,cleavage by trypsin,Trypsin [2],cleaved by trypsin
5FAM-KIDEANQRATK(Dabcyl)[Nle]-NH2 [SEQ ID NO: 14],"cleavable by BoNT/A holotoxin, complex or non-toxic LCs alone",[3],can be cleaved
"[5-Fam]TRIDEANQRATK[DABCYL]-Hex (5FAM-TRIDEANQRATK; not fully specified (residue 12, C-terminus); also: DABCYL label and hexyl (-Hex) at C-terminal K, placement not clear) [#112]",cleavage by BoNT/B serotype,BoNT/B,not cleaved
same,cleavage upon addition of increasing concentrations of BoNT/A complex,BoNT/A complex [4],only little cleavage
same,cleaved by BoNT/A subtypes (recombinant LCs),BoNT/A subtypes A1 to A5,None
same,Km,Proteinase K,3.37 ± 0.67 µM
same,kcat,Proteinase K,50.73 ± 3.28 s⁻¹
same,Km,Thermolysin,3.58 ± 0.76 µM
same,kcat,Thermolysin,24.26 ± 1.72 s⁻¹
same,cleavage by BoNT/A complex,BoNT/A complex [1],not by BoNT/A complex
same,cleavage by BoNT/A serotype,BoNT/A complex [1],not cleaved
same,Km,Trypsin [5],3.75 ± 0.79 µM
same,kcat,Trypsin [5],58.72 ± 4.17 s⁻¹
same,cleavage by trypsin,Trypsin [2],cleaved by trypsin
"[4-Mu]TRIDEANQRATK[DABCYL]-Hex ({4‑Mu}-TRIDEANQRATK; not fully specified (residue 12, C-terminus); also: DABCYL label and hexyl (-Hex) at C-terminal K, placement not clear) [#113]",cleaved by BoNT/A subtypes (recombinant LCs),BoNT/A subtypes A1 to A5,None
same,Km,Proteinase K,4.87 ± 0.96 µM
same,kcat,Proteinase K,30.64 ± 2.17 s⁻¹
same,Km,Thermolysin,6.45 ± 0.8 µM
same,kcat,Thermolysin,14.66 ± 0.71 s⁻¹
same,cleavage by BoNT/A complex,BoNT/A complex [1],not by BoNT/A complex
same,Km,Trypsin [5],13.3 ± 2.7 µM
same,kcat,Trypsin [5],83.90 ± 8.35 s⁻¹
same,cleavage by trypsin,Trypsin [2],cleaved by trypsin
K(5FAM)IDEANQRATK(Dabcyl)[Nle]-NH2 [#201],"cleavable by BoNT/A holotoxin, complex or non-toxic LCs alone",[3],can be cleaved
K[5FAM]-IDEANQRATK[DABCYL]-Hex-CONH2 [#204],cleavage in microcolumn ALISSA,BoNT/A light chain,does not cleave the control peptide
"c1ccc(CN(CCN(Cc2ccccn2)Cc2ccccn2)Cc2ccccn2)nc1 [TPEN, N,N,N′,N′-Tetrakis (2-pyridylmethyl) ethylenediamine, reference compound]",effect on BoNT metalloprotease activity,BoNT/A complex [4],suppressed BoNT metalloprotease activity
Fam-K[5-Fam]IDEANQRATK[DABCYL]Nle-amide [SEQ ID NO: 13],"cleavable by BoNT/A holotoxin, complex or non-toxic LCs alone",[3],can be cleaved

# From patent US11604185B2 (priority 2007, dated 2023)
